Experimental data published in patent publication US20050003420, “Recycled mutagenesis of restriction endonuclease toward enhanced catalytic activity” (published 2005).
Residue numbers refer to the chain shown, from its start.

Key:
[1] = target: T1, BsoBI restriction endonuclease (UniProt P70985 P70985:1-323); test: filter; 4 mM CaCl2, 100 mM NaCl, pH 7.5, room temp; ±2.0; settings: tags: untagged, expressed from pRRS-bsoBIR in E. coli ER2683; chain copies: 2 inferred; label: 33P 5' end
T1 sequence: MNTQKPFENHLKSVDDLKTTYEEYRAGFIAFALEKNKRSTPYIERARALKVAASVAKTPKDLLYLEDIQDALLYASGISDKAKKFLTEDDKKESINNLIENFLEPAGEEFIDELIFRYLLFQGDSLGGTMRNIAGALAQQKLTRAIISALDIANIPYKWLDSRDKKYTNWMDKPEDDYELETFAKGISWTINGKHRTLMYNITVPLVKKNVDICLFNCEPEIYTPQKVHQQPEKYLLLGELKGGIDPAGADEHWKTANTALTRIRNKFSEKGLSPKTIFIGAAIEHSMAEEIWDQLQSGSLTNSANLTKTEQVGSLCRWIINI
Description: (§1) The binding condition was in 10 mM Tris-HCl, pH 7.5, 100 mM NaCl, 50 mg/ml BSA, 4 mM CaCl₂ in […] volume. The labeled DNA substrates were diluted to a final scintillation count of 1000-5000 cpm and varying amount of BsoBI or each variant was added. Following incubation at room temperature for 10 min, the bound complex was loaded onto Micropure EZ column (Millipore Corporation, Bedford, Mass.) and spun at 16K g for 1 min. Protein and protein:DNA complexes are bound to the membrane in the Micropure EZ column and only the free unbound DNA is in the flow-through fraction. 180 μl of the flow-through liquid was immediately transferred to scintillation counting vials filled with 1.5 ml OPTI-FLUOR for aqueous samples (Packard, Meriden, Conn.). The radioactivity count from the sample without BsoBI is F₀, and the radioactivity count from sample with BsoBI or each variant is F. The apparent Kd value is calculated from F/F₀ and the BsoBI concentration [E] according to equation [1]. F/F₀=a [Kd/([E]+Kd)]+b a and b are equation fitting parameters, where b is the non-specific flow-through, and a is the maximum change amplitude.
(§2) DNA binding properties of BsoBI endonuclease and variants: To obtain reproducible BsoBI:DNA binding data, a filter binding assay utilizing a microcentrifuge filter was developed. […]

[2] = target: T2, BsoBI D246R (UniProt P70985 P70985:1-323, D246R); test: filter; 4 mM CaCl2; ±20; settings: chain copies: 2 inferred; label: 33P 5' end
T2 sequence: T1 sequence with D246R
Description: as §1, §2

[3] = target: T3, BsoBI D246E (UniProt P70985 P70985:1-323, D246E); test: filter; 4 mM CaCl2; ±20000; settings: chain copies: 2 inferred; label: 33P 5' end
T3 sequence: T1 sequence with D246E
Description: as §1, §2

[4] = target: T4, BsoBI D246A (UniProt P70985 P70985:1-323, D246A); test: filter; 4 mM CaCl2; ±40; settings: chain copies: 2 inferred; label: 33P 5' end
T4 sequence: T1 sequence with D246A
Description: as §1, §2

[5] = target: T5, BsoBI D246Y (UniProt P70985 P70985:1-323, D246Y); test: filter; 4 mM CaCl2; ±16; settings: chain copies: 2 inferred; label: 33P 5' end
T5 sequence: T1 sequence with D246Y
Description: as §1, §2

[6] = target: T6, BsoBI D246C (UniProt P70985 P70985:1-323, D246C); test: filter; 4 mM CaCl2; ±11; settings: chain copies: 2 inferred; label: 33P 5' end
T6 sequence: T1 sequence with D246C
Description: as §1, §2

[7] = target: T6, BsoBI D246C; test: filter; 4 mM CaCl2; ±9.8; settings: chain copies: 2 inferred; label: 33P 5' end
Description: as §1, §2

[8] = target: T4, BsoBI D246A; test: filter; 4 mM CaCl2; ±4; settings: chain copies: 2 inferred; label: 33P 5' end
Description: as §1
(§3) DNA binding properties of BsoBI endonuclease and variants: To obtain reproducible BsoBI:DNA binding data, a filter binding assay utilizing a microcentrifuge filter was developed. In the control experiment, more than 99% of the wt BsoBI endonuclease was retained on the filter of the spin column. When labeled duplex DNA was loaded onto the membrane in the absence of protein, more than 95% of the DNA passed through the column. […] The heat-treatment step removed approximately 80% of E. coli proteins. The filter-binding assay was performed for wt BsoBI endonuclease and variants D246A, D246C, D246E, D246R, and D246Y in the presence of Ca⁺⁺. The inclusion of Ca⁺⁺ in the binding buffer stabilizes the protein:DNA complex in DNA mobility shift assays (data not shown) and it was presumed that Ca⁺⁺ does the same in the filter binding assay.

[9] = target: T5, BsoBI D246Y; test: filter; 4 mM CaCl2; ±4; settings: chain copies: 2 inferred; label: 33P 5' end
Description: as §1, §3

[10] = target: T1, BsoBI restriction endonuclease; test: filter; 4 mM CaCl2, 100 mM NaCl, pH 7.5, room temp; ±0.9; settings: tags: untagged, expressed from pRRS-bsoBIR in E. coli ER2683; chain copies: 2 inferred; label: 33P 5' end
Description: as §1, §2

[11] = target: T3, BsoBI D246E; test: filter; 4 mM CaCl2; ±1578; settings: chain copies: 2 inferred; label: 33P 5' end
Description: as §1, §2

[12] = target: T2, BsoBI D246R; test: filter; 4 mM CaCl2; ±4.6; settings: chain copies: 2 inferred; label: 33P 5' end
Description: as §1, §2

[13] = target: T2, BsoBI D246R; test: filter; 4 mM CaCl2; ±3.5; settings: chain copies: 2 inferred; label: 33P 5' end
Description: as §1, §2

[14] = target: T3, BsoBI D246E; test: filter; 4 mM CaCl2; ±683; settings: chain copies: 2 inferred; label: 33P 5' end
Description: as §1, §2

[15] = target: T6, BsoBI D246C; test: filter; 4 mM CaCl2; ±4; settings: chain copies: 2 inferred; label: 33P 5' end
Description: as §1, §3

[16] = target: T4, BsoBI D246A; test: filter; 4 mM CaCl2; ±0.6; settings: chain copies: 2 inferred; label: 33P 5' end
Description: as §1, §2

[17] = target: T1, BsoBI restriction endonuclease; test: filter; 4 mM CaCl2, 100 mM NaCl, pH 7.5, room temp; ±1.2; settings: tags: untagged, expressed from pRRS-bsoBIR in E. coli ER2683; chain copies: 2 inferred; label: 33P 5' end
Description: as §1, §2

[18] = target: T5, BsoBI D246Y; test: filter; 4 mM CaCl2; ±2; settings: chain copies: 2 inferred; label: 33P 5' end
Description: as §1, §2

[19] = target: T4, BsoBI D246A; test: filter; 4 mM CaCl2; ±97; settings: chain copies: 2 inferred; label: 33P 5' end
Description: as §1, §2

[20] = target: T5, BsoBI D246Y; test: filter; 4 mM CaCl2; ±67; settings: chain copies: 2 inferred; label: 33P 5' end
Description: as §1, §2

[21] = target: T3, BsoBI D246E; test: filter; 4 mM CaCl2; ±3347; settings: chain copies: 2 inferred; label: 33P 5' end
Description: as §1, §2

[22] = target: T6, BsoBI D246C; test: filter; 4 mM CaCl2; ±10; settings: chain copies: 2 inferred; label: 33P 5' end
Description: as §1, §2

[23] = target: T1, BsoBI restriction endonuclease; test: filter; 4 mM CaCl2, non-specific control; ±143; settings: tags: untagged, expressed from pRRS-bsoBIR in E. coli ER2683; chain copies: 2 inferred; label: 33P 5' end
Description: as §1, §2

[24] = target: T2, BsoBI D246R; test: filter; 4 mM CaCl2; ±4.9; increased non-specific binding; settings: chain copies: 2 inferred; label: 33P 5' end
Description: as §1, §2

B1: S1 (CTCGAG) (dsDNA)
DNA 1: GAGTGTTATGGGTAGCTCGAGTGAAGTGGGAATATC
DNA 2: GATATTCCCACTTCACTCGAGCTACCCATAACACTC
Which results are given for B1?
Kd [1]: 9.2 pM; Kd [2]: 89 pM; Kd [3]: 80000 pM; Kd [4]: 219 pM; Kd [5]: 132 pM; Kd [6]: 74 pM

B2: S3 (CTCGGG/CCCGAG) (dsDNA)
DNA 1: B1 DNA 1 with A20G
DNA 2: B1 DNA 2 with T17C
With B2 as the binder, how does the Kd [7] read?
Its Kd is 64 pM.

And the Kd [8]?
The Kd was 17 pM.

And the Kd [9]?
The Kd was 57 pM.

What about the Kd [10] of the same binder?
Its Kd is 5.3 pM.

What about the Kd [11] of the same binder?
Its Kd is 42100 pM.

What about the Kd [12] of the same binder?
Its Kd is 39 pM.

B3: S2 (CCCGGG) (dsDNA)
DNA 1: B1 DNA 1 with T17C, A20G
DNA 2: B1 DNA 2 with T17C, A20G
How did the Kd [13] turn out when B3 was run?
Its Kd is 38 pM.

And the Kd [14]?
Its Kd is 2840 pM.

And the Kd [15]?
The Kd was 30 pM.

And the Kd [16]?
Its Kd is 3.1 pM.

What about the Kd [17] of the same binder?
Its Kd is 6.6 pM.

And the Kd [18]?
The Kd was 41 pM.

B4: N (CATAAC, non-specific) (dsDNA)
DNA 1: B1 DNA 1 with T17A, C18T, G19A, G21C
DNA 2: B1 DNA 2 with C16G, C18T, G19A, A20T
How did the Kd [19] turn out when B4 was run?
The Kd was 578 pM.

And the Kd [20]?
Its Kd is 449 pM.

And the Kd [21]?
The Kd was 93200 pM.

What about the Kd [22] of the same binder?
The Kd was 142 pM.

And the Kd [23]?
Its Kd is 1440 pM.

What about the Kd [24] of the same binder?
The Kd was 64 pM.
